# Data reported in patent publication US20150344570A1 (published 2015).
# Where a chain is given by its changes, count along the chain named. Names and notes keep the numbering of the source.
# T1: FcgRIIa R (FcγRIIa type R) extracellular domain with C-terminal His tag (human, UniProt P12318 34-217)
# T1 construct: extracellular domain; also called FcγRIIa R; not shown: His tag attached to the C terminus
# T1 sequence (looked up): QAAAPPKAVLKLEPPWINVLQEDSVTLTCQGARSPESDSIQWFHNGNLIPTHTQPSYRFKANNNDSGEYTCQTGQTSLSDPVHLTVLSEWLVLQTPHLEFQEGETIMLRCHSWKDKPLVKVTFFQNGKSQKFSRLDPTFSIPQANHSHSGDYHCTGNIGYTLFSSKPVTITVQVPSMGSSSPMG
# T2: FcgRIIa H (FcγRIIa type H) extracellular domain with C-terminal His tag (human, UniProt P12318 34-217)
# T2 construct: extracellular domain; also called FcγRIIa H; not shown: His tag attached to the C terminus
# T2 sequence (looked up): T1 sequence (looked up) with R134H
# T3: FcgRIIb (FcγRIIb) extracellular domain with C-terminal His tag (human, UniProt P31994 43-217)
# T3 construct: extracellular domain; not shown: His tag attached to the C terminus
# T3 sequence (looked up): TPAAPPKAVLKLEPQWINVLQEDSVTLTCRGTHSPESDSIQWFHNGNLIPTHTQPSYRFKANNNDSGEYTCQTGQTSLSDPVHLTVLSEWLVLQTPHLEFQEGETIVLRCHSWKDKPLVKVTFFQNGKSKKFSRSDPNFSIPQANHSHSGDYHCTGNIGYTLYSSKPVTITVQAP
# B1: H240-Kn061/H240-Hl071/L73-k0 variant with A231E in H240-Kn061 (antibody, human IgG1, kappa)
# heavy 1: QDQLVQSGAEVKKPGASVKVSCKASGFNIKDTYIQWVRQAPGQGLEWMGRIDPLRKQTKYREKFEGRVTITADTSTNTAYMELSSLRSEDTAVYYCVRSGREFDYWGQGTLVTVSSASTKGPSVFPLAPSSKSTSGGTAALGCLVKDYFPEPVTVSWNSGALTSGVHTFPAVLQSSGLYSLSSVVTVPSSSLGTQTYICNVNHKPSNTKVDKKVEPKSCDKTHTCPPCPEPEYYWGPSVFLFPPKPKDTLMISRTPEVTCVVVDVSDEDPEVKFNWYVDGVEVHNAKTKPREEQYNATYRVVSVLTVLHQDWLNGKEYKCKVSNKALPAPIEKTISKAKGQPREPQVCTLPPSRDELTKNQVSLWCLVKGFYPSDIAVEWESNGQPENNYKTTPPVLDSDGSFFLYSKLTVDKSRWQQGNVFSCSVMHEALHNHYTQKSLSLSP
# heavy 2: QDQLVQSGAEVKKPGASVKVSCKASGFNIKDTYIQWVRQAPGQGLEWMGRIDPLRKQTKYREKFEGRVTITADTSTNTAYMELSSLRSEDTAVYYCVRSGREFDYWGQGTLVTVSSASTKGPSVFPLAPSSKSTSGGTAALGCLVKDYFPEPVTVSWNSGALTSGVHTFPAVLQSSGLYSLSSVVTVPSSSLGTQTYICNVNHKPSNTKVDKKVEPKSCDKTHTCPPCPAPELLGGPSVFLFPPKPKDTLMISRTPEVTCVVVDVSHEDPEVKFNWYVDGVEVHNAKTKPREEQYNSTYRVVSVLTVLHQDWLNGKEYKCKVSNDALPMPIEETISKAKGQPREPQVYTLPPSRCELTKNQVSLSCAVKGFYPSDIAVEWESNGQPENNYKTTPPVLDSDGSFFLVSKLTVDKSRWQQGNVFSCSVMHEALHNHYTQKSLSLSP
# light: DIQMTQSPSSLSASVGDRVTITCRASQDIHKYIAWYQQKPGQAPRLLIQYTSTLQPGVPSRFSGSGSGTDYTFTISSLQPEDIATYYCLQYEQLRTFGGGTKVEIKRTVAAPSVFIFPPSDEQLKSGTASVVCLLNNFYPREAKVQWKVDNALQSGNSQESVTEQDSKDSTYSLSSTLTLSKADYEKHKVYACEVTHQGLSSPVTKSFNRGEC
# notes: anti-epiregulin heterodimerized IgG1; also called H240-Kn061 A231E
# B2: H240-Kn061/H240-Hl071/L73-k0 variant with S239I in H240-Kn061 (antibody, human IgG1, kappa)
# heavy 1: B1 heavy 1 with E230A, S238I
# heavy 2: B1 heavy 2
# light: B1 light
# notes: anti-epiregulin heterodimerized IgG1; also called H240-Kn061 S239I
# B3: H240-Kn061/H240-Hl071/L73-k0 variant with A231Q in H240-Kn061 (antibody, human IgG1, kappa)
# heavy 1: B1 heavy 1 with E230Q
# heavy 2: B1 heavy 2
# light: B1 light
# notes: anti-epiregulin heterodimerized IgG1; also called H240-Kn061 A231Q
# B4: H240-Kn061/H240-Hl071/L73-k0 variant with S239L in H240-Kn061 (antibody, human IgG1, kappa)
# heavy 1: B1 heavy 1 with E230A, S238L
# heavy 2: B1 heavy 2
# light: B1 light
# notes: anti-epiregulin heterodimerized IgG1; also called H240-Kn061 S239L
# B5: H240-Kn061/H240-Hl071/L73-k0 variant with A231V in H240-Kn061 (antibody, human IgG1, kappa)
# heavy 1: B1 heavy 1 with E230V
# heavy 2: B1 heavy 2
# light: B1 light
# notes: anti-epiregulin heterodimerized IgG1; also called H240-Kn061 A231V
# B6: H240-Kn061/H240-Hl071/L73-k0 variant with F241N in H240-Hl071 (antibody, human IgG1, kappa)
# heavy 1: B1 heavy 1 with E230A
# heavy 2: B1 heavy 2 with F240N
# light: B1 light
# notes: anti-epiregulin heterodimerized IgG1; also called H240-Hl071 F241N
# B7: H240-Kn061/H240-Hl071/L73-k0 variant with Y235T in H240-Kn061 (antibody, human IgG1, kappa)
# heavy 1: B1 heavy 1 with E230A, Y234T
# heavy 2: B1 heavy 2
# light: B1 light
# notes: anti-epiregulin heterodimerized IgG1; also called H240-Kn061 Y235T
# B8: H240-Kn061/H240-Hl071/L73-k0 variant with Y235M in H240-Kn061 (antibody, human IgG1, kappa)
# heavy 1: B1 heavy 1 with E230A, Y234M
# heavy 2: B1 heavy 2
# light: B1 light
# notes: anti-epiregulin heterodimerized IgG1; also called H240-Kn061 Y235M
# B9: H240-Kn061/H240-Hl071/L73-k0 variant with Y235N in H240-Kn061 (antibody, human IgG1, kappa)
# heavy 1: B1 heavy 1 with E230A, Y234N
# heavy 2: B1 heavy 2
# light: B1 light
# notes: anti-epiregulin heterodimerized IgG1; also called H240-Kn061 Y235N
# B10: H240-Kn061/H240-Hl071/L73-k0 variant with Y235F in H240-Kn061 (antibody, human IgG1, kappa)
# heavy 1: B1 heavy 1 with E230A, Y234F
# heavy 2: B1 heavy 2
# light: B1 light
# notes: anti-epiregulin heterodimerized IgG1; also called H240-Kn061 Y235F
# B11: H240-Kn061/H240-Hl071/L73-k0 variant with Y235L in H240-Kn061 (antibody, human IgG1, kappa)
# heavy 1: B1 heavy 1 with E230A, Y234L
# heavy 2: B1 heavy 2
# light: B1 light
# notes: anti-epiregulin heterodimerized IgG1; also called H240-Kn061 Y235L
# B12: H240-Kn061/H240-Hl071/L73-k0 variant with Y235W in H240-Kn061 (antibody, human IgG1, kappa)
# heavy 1: B1 heavy 1 with E230A, Y234W
# heavy 2: B1 heavy 2
# light: B1 light
# notes: anti-epiregulin heterodimerized IgG1; also called H240-Kn061 Y235W
# B13: H240-Kn061/H240-Hl071/L73-k0 variant with Y235E in H240-Kn061 (antibody, human IgG1, kappa)
# heavy 1: B1 heavy 1 with E230A, Y234E
# heavy 2: B1 heavy 2
# light: B1 light
# notes: anti-epiregulin heterodimerized IgG1; also called H240-Kn061 Y235E
# B14: H240-Kn061/H240-Hl071/L73-k0 variant with Y234S in H240-Kn061 (antibody, human IgG1, kappa)
# heavy 1: B1 heavy 1 with E230A, Y233S
# heavy 2: B1 heavy 2
# light: B1 light
# notes: anti-epiregulin heterodimerized IgG1; also called H240-Kn061 Y234S
# Target: T1, FcgRIIa R (FcγRIIa type R) …
# Test: SPR (Biacore); KD of H240-Kn061/H240-Hl071/L73-k0 divided by KD of the variant
# Description: (§1) The antibodies were assessed for the binding to each FcgR. […] The resultant value was defined as relative KD, and used as an assessment indicator.
# (§2) Analysis of interaction between objective antibody and the FcγR was carried out using Biacore T100 (GE Healthcare), Biacore T200, Biacore A100, and Biacore 4000. HBS-EP+ (GE Healthcare) was used as the running buffer, and the measurement temperature was set to 25° C. Chips produced by immobilizing the antigen peptide by the amine coupling method to a Series S sensor Chip CM5 (GE Healthcare), chips produced by allowing preliminarily biotinylated antigen peptides to interact with and immobilize onto a Series S Sensor Chip SA (certified) (GE Healthcare), chips produced by immobilizing Protein L (ACTIGEN, BioVision) to Series S Sencor Chip CM5 (GE Healthcare), or chips produced by immobilizing Protein A/G (Thermo Scientific) to Series S Sencor Chip CM5 (GE Healthcare) were used. Antibodies of interest were captured onto these chips, and allowed to interact to each FcγR diluted with running buffer.
row,Binder,relative KD
1,B1,1.7 ratio
2,B2,4.4 ratio
3,B3,1.5 ratio
4,B4,4.8 ratio
5,B5,1.6 ratio
6,B6,3.8 ratio

# Target: T2, FcgRIIa H (FcγRIIa type H) …
# Test: as above
# Description: as §1, §2
row,Binder,relative KD
1,B1,1.6 ratio
2,B2,2.1 ratio
3,B3,1.5 ratio
4,B4,2.4 ratio
5,B5,1.6 ratio
6,B6,3.5 ratio

# Target: T3, FcgRIIb (FcγRIIb) extracellular domain …
# Test: as above
# Description: as §1, §2
row,Binder,relative KD
1,B1,1.4 ratio
2,B2,3.1 ratio
3,B3,1.4 ratio
4,B4,3.4 ratio
5,B5,1.6 ratio
6,B6,1.1 ratio

# Target: T4, FcgRIIIa F (FcγRIIIa type F) extracellular domain with C-terminal His tag (human, UniProt P08637 17-208)
# T4 construct: extracellular domain; also called FcγRIIIa F; 3aF; not shown: His tag attached to the C terminus
# Test: as above
# Description: as §1, §2
# T4 sequence (P08637 17-208): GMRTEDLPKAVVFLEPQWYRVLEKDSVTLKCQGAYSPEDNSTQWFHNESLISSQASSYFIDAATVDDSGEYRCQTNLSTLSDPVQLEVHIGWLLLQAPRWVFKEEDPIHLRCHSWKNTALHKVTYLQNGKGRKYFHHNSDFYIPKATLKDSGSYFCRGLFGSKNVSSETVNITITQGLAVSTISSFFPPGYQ
row,Binder,relative KD
1,B1,1.8 ratio
2,B2,3 ratio
3,B3,1.5 ratio
4,B4,3.4 ratio
5,B5,1.3 ratio
6,B6,0.8 ratio

# Target: T5, FcgRIIIa V (FcγRIIIa type V) extracellular domain with C-terminal His tag (human, UniProt P08637 17-208)
# T5 construct: extracellular domain; also called FcγRIIIa V; not shown: His tag attached to the C terminus
# Test: as above
# Description: as §1, §2
# T5 sequence (P08637 17-208 F176V limits assumed): as the sequence (P08637 17-208) above, with F160V counted along it
row,Binder,relative KD
1,B1,2 ratio
2,B2,3.4 ratio
3,B3,1.7 ratio
4,B4,3.7 ratio
5,B5,1.5 ratio
6,B6,0.7 ratio

# Target: T3, FcgRIIb (FcγRIIb) extracellular domain …
# Test: as above
# Remark: another data set of the same source
# Description: as §1, §2
row,Binder,relative KD
1,B7,0.6 ratio
2,B8,0.7 ratio
3,B9,0.7 ratio
4,B10,1.2 ratio
5,B11,0.9 ratio
6,B12,1.3 ratio
7,B13,0.8 ratio
8,B14,1 ratio

# Target: T4, FcgRIIIa F (FcγRIIIa type F) …
# Test: as above
# Remark: another data set of the same source
# Description: as §1, §2
row,Binder,relative KD
1,B7,0.9 ratio
2,B8,1.7 ratio
3,B9,1.3 ratio
4,B10,1.3 ratio
5,B11,1.8 ratio
6,B12,1.1 ratio
7,B13,2.2 ratio
8,B14,0.9 ratio

# Target: T5, FcgRIIIa V (FcγRIIIa type V) …
# Test: as above
# Remark: another data set of the same source
# Description: as §1, §2
row,Binder,relative KD
1,B7,1.1 ratio
2,B8,1.8 ratio
3,B9,2 ratio
4,B10,1.5 ratio
5,B11,1.5 ratio
6,B12,1.3 ratio
7,B13,3.2 ratio
8,B14,0.9 ratio
